From patent US20250368745A1 (published 2025)

T1: human IL-18BP (human, UniProt O95998 31-194)
T1 construct: also called hIL-18BP; Mature Human Isoform A
T1 sequence: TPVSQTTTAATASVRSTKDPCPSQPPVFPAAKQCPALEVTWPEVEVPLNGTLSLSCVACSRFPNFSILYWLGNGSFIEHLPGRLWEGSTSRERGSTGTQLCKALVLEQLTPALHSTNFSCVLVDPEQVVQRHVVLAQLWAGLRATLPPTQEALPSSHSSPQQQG


Molecular target: T1, human IL-18BP
Experiment: BLI, apparent KD, one conc.

Binder	Kd [nM]
SA301a light chain variant V29T (antibody, V domains shown) VH: QVQLQESGPGLVKPSQTLSLTCTVSGYSITSDYNSHWIRQPPGKGLEWIGYIHYSGSTNYNPSLKSRVTISRDTSKNQFSLKLSSVTAADTAVYYCARNYGSIYVNYFDYWGQGTLVTVSS VL: EIVLTQSPATLSLSPGERATLSCSASSSTSYMYWYQQKPGQAPRPLIYRTSNLASGIPARFSGSGSGTDFTLTISSLEPEDFAVYYCQQYHSYPTFGGGTKVEIK	0.32
SA301a light chain variant V29E (antibody, V domains shown) VH: QVQLQESGPGLVKPSQTLSLTCTVSGYSITSDYNSHWIRQPPGKGLEWIGYIHYSGSTNYNPSLKSRVTISRDTSKNQFSLKLSSVTAADTAVYYCARNYGSIYVNYFDYWGQGTLVTVSS VL: EIVLTQSPATLSLSPGERATLSCSASSSESYMYWYQQKPGQAPRPLIYRTSNLASGIPARFSGSGSGTDFTLTISSLEPEDFAVYYCQQYHSYPTFGGGTKVEIK	0.34
SA301a light chain variant V29Q (antibody, V domains shown) VH: QVQLQESGPGLVKPSQTLSLTCTVSGYSITSDYNSHWIRQPPGKGLEWIGYIHYSGSTNYNPSLKSRVTISRDTSKNQFSLKLSSVTAADTAVYYCARNYGSIYVNYFDYWGQGTLVTVSS VL: EIVLTQSPATLSLSPGERATLSCSASSSQSYMYWYQQKPGQAPRPLIYRTSNLASGIPARFSGSGSGTDFTLTISSLEPEDFAVYYCQQYHSYPTFGGGTKVEIK	0.3
SA301a light chain variant V29P (antibody, V domains shown) VH: QVQLQESGPGLVKPSQTLSLTCTVSGYSITSDYNSHWIRQPPGKGLEWIGYIHYSGSTNYNPSLKSRVTISRDTSKNQFSLKLSSVTAADTAVYYCARNYGSIYVNYFDYWGQGTLVTVSS VL: EIVLTQSPATLSLSPGERATLSCSASSSPSYMYWYQQKPGQAPRPLIYRTSNLASGIPARFSGSGSGTDFTLTISSLEPEDFAVYYCQQYHSYPTFGGGTKVEIK	0.38
SA301a light chain variant S30L (antibody, V domains shown) VH: QVQLQESGPGLVKPSQTLSLTCTVSGYSITSDYNSHWIRQPPGKGLEWIGYIHYSGSTNYNPSLKSRVTISRDTSKNQFSLKLSSVTAADTAVYYCARNYGSIYVNYFDYWGQGTLVTVSS VL: EIVLTQSPATLSLSPGERATLSCSASSSVLYMYWYQQKPGQAPRPLIYRTSNLASGIPARFSGSGSGTDFTLTISSLEPEDFAVYYCQQYHSYPTFGGGTKVEIK	0.49
SA301a light chain variant S30D (antibody, V domains shown) VH: QVQLQESGPGLVKPSQTLSLTCTVSGYSITSDYNSHWIRQPPGKGLEWIGYIHYSGSTNYNPSLKSRVTISRDTSKNQFSLKLSSVTAADTAVYYCARNYGSIYVNYFDYWGQGTLVTVSS VL: EIVLTQSPATLSLSPGERATLSCSASSSVDYMYWYQQKPGQAPRPLIYRTSNLASGIPARFSGSGSGTDFTLTISSLEPEDFAVYYCQQYHSYPTFGGGTKVEIK	0.31
SA301a light chain variant S30F (antibody, V domains shown) VH: QVQLQESGPGLVKPSQTLSLTCTVSGYSITSDYNSHWIRQPPGKGLEWIGYIHYSGSTNYNPSLKSRVTISRDTSKNQFSLKLSSVTAADTAVYYCARNYGSIYVNYFDYWGQGTLVTVSS VL: EIVLTQSPATLSLSPGERATLSCSASSSVFYMYWYQQKPGQAPRPLIYRTSNLASGIPARFSGSGSGTDFTLTISSLEPEDFAVYYCQQYHSYPTFGGGTKVEIK	0.35
SA301a light chain variant S27I (antibody, V domains shown) VH: QVQLQESGPGLVKPSQTLSLTCTVSGYSITSDYNSHWIRQPPGKGLEWIGYIHYSGSTNYNPSLKSRVTISRDTSKNQFSLKLSSVTAADTAVYYCARNYGSIYVNYFDYWGQGTLVTVSS VL: EIVLTQSPATLSLSPGERATLSCSASISVSYMYWYQQKPGQAPRPLIYRTSNLASGIPARFSGSGSGTDFTLTISSLEPEDFAVYYCQQYHSYPTFGGGTKVEIK	0.5
SA301a light chain variant S27D (antibody, V domains shown) VH: QVQLQESGPGLVKPSQTLSLTCTVSGYSITSDYNSHWIRQPPGKGLEWIGYIHYSGSTNYNPSLKSRVTISRDTSKNQFSLKLSSVTAADTAVYYCARNYGSIYVNYFDYWGQGTLVTVSS VL: EIVLTQSPATLSLSPGERATLSCSASDSVSYMYWYQQKPGQAPRPLIYRTSNLASGIPARFSGSGSGTDFTLTISSLEPEDFAVYYCQQYHSYPTFGGGTKVEIK	0.43
SA301a light chain variant S27Y (antibody, V domains shown) VH: QVQLQESGPGLVKPSQTLSLTCTVSGYSITSDYNSHWIRQPPGKGLEWIGYIHYSGSTNYNPSLKSRVTISRDTSKNQFSLKLSSVTAADTAVYYCARNYGSIYVNYFDYWGQGTLVTVSS VL: EIVLTQSPATLSLSPGERATLSCSASYSVSYMYWYQQKPGQAPRPLIYRTSNLASGIPARFSGSGSGTDFTLTISSLEPEDFAVYYCQQYHSYPTFGGGTKVEIK	0.37
SA301a light chain variant S27L (antibody, V domains shown) VH: QVQLQESGPGLVKPSQTLSLTCTVSGYSITSDYNSHWIRQPPGKGLEWIGYIHYSGSTNYNPSLKSRVTISRDTSKNQFSLKLSSVTAADTAVYYCARNYGSIYVNYFDYWGQGTLVTVSS VL: EIVLTQSPATLSLSPGERATLSCSASLSVSYMYWYQQKPGQAPRPLIYRTSNLASGIPARFSGSGSGTDFTLTISSLEPEDFAVYYCQQYHSYPTFGGGTKVEIK	0.44
SA301a light chain variant S27H (antibody, V domains shown) VH: QVQLQESGPGLVKPSQTLSLTCTVSGYSITSDYNSHWIRQPPGKGLEWIGYIHYSGSTNYNPSLKSRVTISRDTSKNQFSLKLSSVTAADTAVYYCARNYGSIYVNYFDYWGQGTLVTVSS VL: EIVLTQSPATLSLSPGERATLSCSASHSVSYMYWYQQKPGQAPRPLIYRTSNLASGIPARFSGSGSGTDFTLTISSLEPEDFAVYYCQQYHSYPTFGGGTKVEIK	0.53
SA301a light chain variant S27G (antibody, V domains shown) VH: QVQLQESGPGLVKPSQTLSLTCTVSGYSITSDYNSHWIRQPPGKGLEWIGYIHYSGSTNYNPSLKSRVTISRDTSKNQFSLKLSSVTAADTAVYYCARNYGSIYVNYFDYWGQGTLVTVSS VL: EIVLTQSPATLSLSPGERATLSCSASGSVSYMYWYQQKPGQAPRPLIYRTSNLASGIPARFSGSGSGTDFTLTISSLEPEDFAVYYCQQYHSYPTFGGGTKVEIK	0.49
SA301a light chain variant S27R (antibody, V domains shown) VH: QVQLQESGPGLVKPSQTLSLTCTVSGYSITSDYNSHWIRQPPGKGLEWIGYIHYSGSTNYNPSLKSRVTISRDTSKNQFSLKLSSVTAADTAVYYCARNYGSIYVNYFDYWGQGTLVTVSS VL: EIVLTQSPATLSLSPGERATLSCSASRSVSYMYWYQQKPGQAPRPLIYRTSNLASGIPARFSGSGSGTDFTLTISSLEPEDFAVYYCQQYHSYPTFGGGTKVEIK	0.45
SA301a light chain variant S27Q (antibody, V domains shown) VH: QVQLQESGPGLVKPSQTLSLTCTVSGYSITSDYNSHWIRQPPGKGLEWIGYIHYSGSTNYNPSLKSRVTISRDTSKNQFSLKLSSVTAADTAVYYCARNYGSIYVNYFDYWGQGTLVTVSS VL: EIVLTQSPATLSLSPGERATLSCSASQSVSYMYWYQQKPGQAPRPLIYRTSNLASGIPARFSGSGSGTDFTLTISSLEPEDFAVYYCQQYHSYPTFGGGTKVEIK	0.43
SA301a light chain variant S27P (antibody, V domains shown) VH: QVQLQESGPGLVKPSQTLSLTCTVSGYSITSDYNSHWIRQPPGKGLEWIGYIHYSGSTNYNPSLKSRVTISRDTSKNQFSLKLSSVTAADTAVYYCARNYGSIYVNYFDYWGQGTLVTVSS VL: EIVLTQSPATLSLSPGERATLSCSASPSVSYMYWYQQKPGQAPRPLIYRTSNLASGIPARFSGSGSGTDFTLTISSLEPEDFAVYYCQQYHSYPTFGGGTKVEIK	0.45
SA301a light chain variant S27K (antibody, V domains shown) VH: QVQLQESGPGLVKPSQTLSLTCTVSGYSITSDYNSHWIRQPPGKGLEWIGYIHYSGSTNYNPSLKSRVTISRDTSKNQFSLKLSSVTAADTAVYYCARNYGSIYVNYFDYWGQGTLVTVSS VL: EIVLTQSPATLSLSPGERATLSCSASKSVSYMYWYQQKPGQAPRPLIYRTSNLASGIPARFSGSGSGTDFTLTISSLEPEDFAVYYCQQYHSYPTFGGGTKVEIK	0.52
SA301a light chain variant S27A (antibody, V domains shown) VH: QVQLQESGPGLVKPSQTLSLTCTVSGYSITSDYNSHWIRQPPGKGLEWIGYIHYSGSTNYNPSLKSRVTISRDTSKNQFSLKLSSVTAADTAVYYCARNYGSIYVNYFDYWGQGTLVTVSS VL: EIVLTQSPATLSLSPGERATLSCSASASVSYMYWYQQKPGQAPRPLIYRTSNLASGIPARFSGSGSGTDFTLTISSLEPEDFAVYYCQQYHSYPTFGGGTKVEIK	0.47
SA301a light chain variant S27M (antibody, V domains shown) VH: QVQLQESGPGLVKPSQTLSLTCTVSGYSITSDYNSHWIRQPPGKGLEWIGYIHYSGSTNYNPSLKSRVTISRDTSKNQFSLKLSSVTAADTAVYYCARNYGSIYVNYFDYWGQGTLVTVSS VL: EIVLTQSPATLSLSPGERATLSCSASMSVSYMYWYQQKPGQAPRPLIYRTSNLASGIPARFSGSGSGTDFTLTISSLEPEDFAVYYCQQYHSYPTFGGGTKVEIK	0.63
SA301a light chain variant S28D (antibody, V domains shown) VH: QVQLQESGPGLVKPSQTLSLTCTVSGYSITSDYNSHWIRQPPGKGLEWIGYIHYSGSTNYNPSLKSRVTISRDTSKNQFSLKLSSVTAADTAVYYCARNYGSIYVNYFDYWGQGTLVTVSS VL: EIVLTQSPATLSLSPGERATLSCSASSDVSYMYWYQQKPGQAPRPLIYRTSNLASGIPARFSGSGSGTDFTLTISSLEPEDFAVYYCQQYHSYPTFGGGTKVEIK	0.42
SA301a light chain variant S28Y (antibody, V domains shown) VH: QVQLQESGPGLVKPSQTLSLTCTVSGYSITSDYNSHWIRQPPGKGLEWIGYIHYSGSTNYNPSLKSRVTISRDTSKNQFSLKLSSVTAADTAVYYCARNYGSIYVNYFDYWGQGTLVTVSS VL: EIVLTQSPATLSLSPGERATLSCSASSYVSYMYWYQQKPGQAPRPLIYRTSNLASGIPARFSGSGSGTDFTLTISSLEPEDFAVYYCQQYHSYPTFGGGTKVEIK	0.47
SA301a light chain variant S28N (antibody, V domains shown) VH: QVQLQESGPGLVKPSQTLSLTCTVSGYSITSDYNSHWIRQPPGKGLEWIGYIHYSGSTNYNPSLKSRVTISRDTSKNQFSLKLSSVTAADTAVYYCARNYGSIYVNYFDYWGQGTLVTVSS VL: EIVLTQSPATLSLSPGERATLSCSASSNVSYMYWYQQKPGQAPRPLIYRTSNLASGIPARFSGSGSGTDFTLTISSLEPEDFAVYYCQQYHSYPTFGGGTKVEIK	0.45
